# Assay results reported in the supplement of paper PMC10065799, “High-throughput profiling of sequence recognition by tyrosine kinases and SH2 domains using bacterial peptide display” (eLife, 2023).
# Columns and labels:
# AncSZ = test: phosphorylation enrichment, bacterial display (enrichment ratio); higher = better substrate or ligand; peptides without Tyr show the background
# EPHB1 = EPHB1 (UniProt P54762); test: as above
# EPHB2 = EPHB2 (UniProt P29323); test: as above
# FGFR1 = FGFR1 (UniProt P11362); test: as above
# FGFR3 = FGFR3 (UniProt P22607); test: as above
# Fer (mouse) = test: as above
# Fes = Fes (UniProt P07332); test: as above
# Fyn = Fyn (UniProt P06241); test: as above
# Hck = Hck (UniProt P08631); test: as above
# Jak2 = Jak2 (UniProt O60674); test: as above
# MERTK = MERTK (UniProt Q12866); test: as above
# c-Abl (mouse) = test: as above
# c-Src = test: as above
# Grb2 SH2 = Grb2 SH2 (UniProt P62993); test: SH2 binding enrichment of the phosphorylated peptide, bacterial display (enrichment ratio); higher = better substrate or ligand; peptides without Tyr show the background
# SHP2-C SH2 = test: as above
# c-Src SH2 = test: as above
# 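For SH2 binding enrichment of the phosphorylated peptide, bacterial display in this document: peptide library displayed on the E. coli surface as eCPX fusions, selected cells deep-sequenced, score is each peptide's frequency after selection divided by its frequency in the input.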
# 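For phosphorylation enrichment, bacterial display in this document: 11-residue human phosphosite peptides and single-mutation variants displayed on the E. coli surface, counted by deep sequencing, each peptide's frequency after selection divided by its frequency in the unselected input library; frequency after pTyr selection over input frequency; kinase dosed for 20-30% of maximal phosphorylation in three min.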
# Chain of FGFR3 (P22607 whole entry, looked up): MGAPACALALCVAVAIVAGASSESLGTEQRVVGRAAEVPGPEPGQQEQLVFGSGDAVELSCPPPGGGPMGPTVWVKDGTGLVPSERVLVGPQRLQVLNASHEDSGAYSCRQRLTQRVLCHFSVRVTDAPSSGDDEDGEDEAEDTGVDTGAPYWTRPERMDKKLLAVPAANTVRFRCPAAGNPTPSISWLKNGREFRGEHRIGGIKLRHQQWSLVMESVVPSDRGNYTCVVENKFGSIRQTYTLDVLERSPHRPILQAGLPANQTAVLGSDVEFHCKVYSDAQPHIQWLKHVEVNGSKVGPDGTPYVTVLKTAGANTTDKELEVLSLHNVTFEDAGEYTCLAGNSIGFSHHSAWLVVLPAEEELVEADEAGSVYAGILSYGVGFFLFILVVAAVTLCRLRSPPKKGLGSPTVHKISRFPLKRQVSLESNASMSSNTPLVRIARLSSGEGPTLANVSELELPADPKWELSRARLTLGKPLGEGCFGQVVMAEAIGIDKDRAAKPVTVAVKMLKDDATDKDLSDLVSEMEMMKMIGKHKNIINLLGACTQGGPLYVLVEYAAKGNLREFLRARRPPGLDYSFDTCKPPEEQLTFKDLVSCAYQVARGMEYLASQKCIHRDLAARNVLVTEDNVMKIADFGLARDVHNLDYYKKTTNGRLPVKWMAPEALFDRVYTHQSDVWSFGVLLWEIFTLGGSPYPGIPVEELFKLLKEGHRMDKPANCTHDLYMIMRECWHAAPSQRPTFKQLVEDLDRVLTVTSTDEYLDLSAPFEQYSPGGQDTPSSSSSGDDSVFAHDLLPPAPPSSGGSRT
# Chain of EPHB1 (P54762 whole entry, looked up): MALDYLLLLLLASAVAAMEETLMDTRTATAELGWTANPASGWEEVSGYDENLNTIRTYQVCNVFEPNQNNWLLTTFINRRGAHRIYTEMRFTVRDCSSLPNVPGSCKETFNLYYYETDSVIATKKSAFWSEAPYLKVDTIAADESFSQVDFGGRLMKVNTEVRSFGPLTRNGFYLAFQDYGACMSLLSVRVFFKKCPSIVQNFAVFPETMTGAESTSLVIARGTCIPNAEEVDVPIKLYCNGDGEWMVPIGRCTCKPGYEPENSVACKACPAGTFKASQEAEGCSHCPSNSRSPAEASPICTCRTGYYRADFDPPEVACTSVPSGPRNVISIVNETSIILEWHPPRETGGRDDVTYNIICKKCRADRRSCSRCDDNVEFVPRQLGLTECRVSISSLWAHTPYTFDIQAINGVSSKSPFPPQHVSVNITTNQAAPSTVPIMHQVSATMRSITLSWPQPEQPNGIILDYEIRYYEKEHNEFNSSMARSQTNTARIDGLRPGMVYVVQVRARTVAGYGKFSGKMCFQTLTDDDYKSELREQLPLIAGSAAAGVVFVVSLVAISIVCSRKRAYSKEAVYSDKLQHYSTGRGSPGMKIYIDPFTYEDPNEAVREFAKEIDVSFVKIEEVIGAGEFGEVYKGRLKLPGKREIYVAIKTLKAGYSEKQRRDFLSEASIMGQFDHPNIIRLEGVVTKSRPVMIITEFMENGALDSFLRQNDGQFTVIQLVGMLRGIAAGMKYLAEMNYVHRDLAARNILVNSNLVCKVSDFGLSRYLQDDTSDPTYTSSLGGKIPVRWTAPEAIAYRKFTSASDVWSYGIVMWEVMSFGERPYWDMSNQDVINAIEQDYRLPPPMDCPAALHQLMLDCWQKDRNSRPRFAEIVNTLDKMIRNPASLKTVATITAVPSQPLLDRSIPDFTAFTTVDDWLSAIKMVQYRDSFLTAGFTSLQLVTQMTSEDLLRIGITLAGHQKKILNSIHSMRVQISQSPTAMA
# Chain of Grb2 SH2 (P62993 whole entry, looked up): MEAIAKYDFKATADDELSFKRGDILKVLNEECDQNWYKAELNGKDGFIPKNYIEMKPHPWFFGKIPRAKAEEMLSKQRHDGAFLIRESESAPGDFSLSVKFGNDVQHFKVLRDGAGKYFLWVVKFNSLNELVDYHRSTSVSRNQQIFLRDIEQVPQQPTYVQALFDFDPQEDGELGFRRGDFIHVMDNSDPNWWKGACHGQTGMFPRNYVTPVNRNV
# Chain of Jak2 (O60674 whole entry, looked up): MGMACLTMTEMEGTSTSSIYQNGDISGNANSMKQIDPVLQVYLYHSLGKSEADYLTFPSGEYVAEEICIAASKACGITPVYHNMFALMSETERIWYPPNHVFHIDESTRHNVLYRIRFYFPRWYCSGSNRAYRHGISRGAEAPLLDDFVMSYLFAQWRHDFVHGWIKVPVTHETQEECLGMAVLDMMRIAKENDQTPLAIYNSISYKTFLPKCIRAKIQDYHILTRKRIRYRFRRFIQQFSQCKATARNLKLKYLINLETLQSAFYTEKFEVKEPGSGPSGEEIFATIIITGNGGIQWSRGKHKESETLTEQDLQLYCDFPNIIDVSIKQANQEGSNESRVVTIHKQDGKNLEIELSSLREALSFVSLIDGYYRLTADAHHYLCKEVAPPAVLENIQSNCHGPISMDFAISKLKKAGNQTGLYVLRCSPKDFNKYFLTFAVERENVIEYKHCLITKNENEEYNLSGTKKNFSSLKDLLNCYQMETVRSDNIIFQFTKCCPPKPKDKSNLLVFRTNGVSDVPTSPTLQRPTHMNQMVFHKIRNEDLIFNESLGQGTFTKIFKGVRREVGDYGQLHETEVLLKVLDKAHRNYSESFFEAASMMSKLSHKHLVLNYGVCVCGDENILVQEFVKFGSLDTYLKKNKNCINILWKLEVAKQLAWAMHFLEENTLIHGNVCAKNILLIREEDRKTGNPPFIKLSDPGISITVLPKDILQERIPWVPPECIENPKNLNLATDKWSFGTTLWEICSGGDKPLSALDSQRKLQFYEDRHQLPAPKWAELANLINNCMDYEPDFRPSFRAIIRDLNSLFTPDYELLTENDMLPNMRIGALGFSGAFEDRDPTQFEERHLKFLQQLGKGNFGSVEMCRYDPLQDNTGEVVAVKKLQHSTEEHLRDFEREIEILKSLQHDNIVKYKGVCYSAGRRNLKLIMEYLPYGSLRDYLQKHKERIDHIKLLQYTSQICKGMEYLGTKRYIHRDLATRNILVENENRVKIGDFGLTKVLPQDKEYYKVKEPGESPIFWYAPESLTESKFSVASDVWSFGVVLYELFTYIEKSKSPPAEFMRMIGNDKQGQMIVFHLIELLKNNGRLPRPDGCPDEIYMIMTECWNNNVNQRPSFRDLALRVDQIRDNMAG
# Chain of Fes (P07332 whole entry, looked up): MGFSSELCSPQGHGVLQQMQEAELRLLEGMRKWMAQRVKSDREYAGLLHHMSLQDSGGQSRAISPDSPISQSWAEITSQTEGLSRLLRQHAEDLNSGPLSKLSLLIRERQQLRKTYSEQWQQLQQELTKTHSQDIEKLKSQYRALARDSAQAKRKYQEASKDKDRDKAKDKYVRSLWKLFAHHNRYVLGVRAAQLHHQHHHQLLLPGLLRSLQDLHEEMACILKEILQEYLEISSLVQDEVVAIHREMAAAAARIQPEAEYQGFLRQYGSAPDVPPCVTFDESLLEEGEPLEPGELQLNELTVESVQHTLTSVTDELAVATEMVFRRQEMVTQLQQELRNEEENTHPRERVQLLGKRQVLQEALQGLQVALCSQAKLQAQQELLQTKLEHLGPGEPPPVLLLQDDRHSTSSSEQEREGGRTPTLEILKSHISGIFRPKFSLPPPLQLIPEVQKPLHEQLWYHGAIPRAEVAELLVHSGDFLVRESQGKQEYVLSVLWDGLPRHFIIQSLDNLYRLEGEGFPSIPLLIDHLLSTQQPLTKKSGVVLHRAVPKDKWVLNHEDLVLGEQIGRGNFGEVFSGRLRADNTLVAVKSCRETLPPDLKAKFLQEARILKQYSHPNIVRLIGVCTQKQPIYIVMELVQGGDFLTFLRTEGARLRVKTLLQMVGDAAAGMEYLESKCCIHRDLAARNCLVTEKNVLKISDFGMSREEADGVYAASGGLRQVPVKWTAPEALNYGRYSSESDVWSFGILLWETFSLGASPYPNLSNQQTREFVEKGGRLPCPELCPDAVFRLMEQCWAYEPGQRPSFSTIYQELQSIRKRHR
# Chain of Hck (P08631 whole entry, looked up): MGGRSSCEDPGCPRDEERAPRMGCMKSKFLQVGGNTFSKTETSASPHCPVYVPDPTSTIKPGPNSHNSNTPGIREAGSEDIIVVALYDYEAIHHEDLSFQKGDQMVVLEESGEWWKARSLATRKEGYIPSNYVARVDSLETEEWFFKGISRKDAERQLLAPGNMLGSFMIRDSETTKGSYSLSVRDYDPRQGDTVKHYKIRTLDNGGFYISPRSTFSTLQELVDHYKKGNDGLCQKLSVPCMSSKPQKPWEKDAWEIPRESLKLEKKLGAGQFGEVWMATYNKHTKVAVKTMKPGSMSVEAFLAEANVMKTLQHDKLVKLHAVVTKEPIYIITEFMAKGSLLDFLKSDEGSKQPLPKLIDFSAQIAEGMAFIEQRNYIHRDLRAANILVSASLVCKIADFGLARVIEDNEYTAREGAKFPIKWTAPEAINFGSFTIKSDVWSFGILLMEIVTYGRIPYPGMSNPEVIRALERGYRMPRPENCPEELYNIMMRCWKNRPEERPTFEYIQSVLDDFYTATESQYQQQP
# Chain of Fyn (P06241 whole entry, looked up): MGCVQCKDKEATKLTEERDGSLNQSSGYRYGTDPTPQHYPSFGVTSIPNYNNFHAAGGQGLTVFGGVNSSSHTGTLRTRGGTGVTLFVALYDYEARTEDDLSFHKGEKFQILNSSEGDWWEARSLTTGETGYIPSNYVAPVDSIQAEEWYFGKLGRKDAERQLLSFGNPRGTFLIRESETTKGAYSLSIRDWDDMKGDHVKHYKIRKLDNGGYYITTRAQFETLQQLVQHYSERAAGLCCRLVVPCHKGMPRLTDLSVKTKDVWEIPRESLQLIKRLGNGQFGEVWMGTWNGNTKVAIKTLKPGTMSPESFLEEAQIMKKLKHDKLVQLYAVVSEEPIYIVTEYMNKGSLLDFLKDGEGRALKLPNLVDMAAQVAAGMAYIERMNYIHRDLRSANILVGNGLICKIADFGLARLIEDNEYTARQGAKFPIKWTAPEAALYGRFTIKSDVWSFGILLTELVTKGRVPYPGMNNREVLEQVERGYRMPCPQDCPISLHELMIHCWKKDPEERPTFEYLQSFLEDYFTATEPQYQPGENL
Sequence,phosphorylation enrichment (AncSZ),phosphorylation enrichment (EPHB1),phosphorylation enrichment (EPHB2),phosphorylation enrichment (FGFR1),phosphorylation enrichment (FGFR3),phosphorylation enrichment (Fer (mouse)),phosphorylation enrichment (Fes),phosphorylation enrichment (Fyn),phosphorylation enrichment (Hck),phosphorylation enrichment (Jak2),phosphorylation enrichment (MERTK),phosphorylation enrichment (c-Abl (mouse)),phosphorylation enrichment (c-Src),SH2 binding enrichment (Grb2 SH2),SH2 binding enrichment (SHP2-C SH2),SH2 binding enrichment (c-Src SH2)
LTDRGYSFVTT [ACTA1_Y200_E197D],1.38,0.852,1.04,0.772,0.756,0.653,1.23,0.8,0.677,1.88,0.846,1.17,0.6,0.988,6.52,10
LTERGYSFTTK [ACTG1_Y198_T203K],3,1.8,2.03,1.96,1.54,2.1,2.1,1.66,0.911,1.65,1.79,0.995,0.982,0.679,0.653,0.454
LTNDRYVATLT [IL6ST_Y396_L397V],0.683,0.607,0.72,0.619,0.82,0.408,0.791,0.576,0.394,0.808,0.622,0.434,0.69,0.764,0.527,0.537
LTQRTYMSENA [GPAA1_Y49],0.636,0.364,0.528,0.452,0.485,0.429,0.613,0.376,0.455,0.65,0.47,0.488,0.429,0.783,0.801,0.422
LTYHMYADPNI [SOS1_Y618_F623I],2.56,5.79,6.28,4.27,3.13,1.23,1.59,6.07,4.78,2.03,3.73,3.47,9.95,0.71,1.41,8.46
LVKDPYVMFPQ [PLEKHG2_Y489_P484L],1.45,0.91,0.608,7.45,3.42,1.12,1.93,4.32,2.48,1.79,0.997,0.943,3.86,0.778,0.459,1.98
LVPAWYIGFLC [KCNQ2_Y237_T234P],1.25,0.599,0.625,0.502,0.812,0.56,1.28,0.487,0.516,1.1,0.361,0.804,0.51,0.968,0.844,0.543
LVPPRYARSEI [PKP2_Y194],1.26,0.597,0.72,0.74,0.941,0.697,1.34,0.631,0.783,0.495,0.528,0.345,0.394,0.771,0.787,0.538
LVTCSYLLGNS [LMNA_Y646_R644C],2.16,1.14,1.56,0.76,1.72,0.959,3.29,0.756,0.803,2.94,0.99,1.95,1.3,0.732,0.765,0.37
LWPIWYSCHRP [MRGPRX1_Y130_R131S],1.82,0.83,0.694,0.643,1.04,0.881,1.97,0.519,0.601,1.27,0.687,0.943,0.601,0.924,0.665,0.535
LYEDRYLLGPS [ASS1_Y87_T91P],1.2,3.52,1.4,1.2,1.16,5.42,1.67,2.3,4.13,0.812,0.899,0.683,1.5,0.69,0.662,0.626
LYSNAYLSDLA [ALDH1A1_Y119_N121S],1.68,2.99,1.45,1.14,1.23,7.25,1.01,3.58,3.5,0.945,8.43,0.618,1.96,0.94,0.782,1.11
MALDRYVAICK [OR2B11_Y127],0.762,0.581,0.575,0.508,0.604,0.499,0.838,0.464,0.51,0.665,0.411,0.863,0.454,0.856,0.97,1.35
MCDSHYLESRS [CLK1_Y56],0.578,0.495,0.535,0.509,0.718,0.473,0.81,0.449,0.35,0.618,0.426,0.493,0.424,1.04,0.719,0.675
MDQAEYQAKIR [DHX58_Y518],0.616,0.299,0.476,0.441,0.412,0.433,0.708,0.477,0.424,0.659,0.446,0.729,0.43,0.754,1.04,0.612
MENFIYESMRF [CYP19A1_Y361_YF],1.3,4.14,2.63,0.551,0.577,14.1,5.1,8.61,7.67,0.626,3.74,2.71,6.6,0.772,0.677,0.562
MEYLPYGSLRD [JAK2_Y934],1.45,2.63,1.41,1.15,1.02,1.25,1.26,4.56,5.07,1.41,0.511,1.02,4.9,0.723,1.19,0.498

Sequence,phosphorylation enrichment (AncSZ),phosphorylation enrichment (EPHB1),phosphorylation enrichment (EPHB2),phosphorylation enrichment (FGFR1),phosphorylation enrichment (FGFR3),phosphorylation enrichment (Fer (mouse)),phosphorylation enrichment (Fes),phosphorylation enrichment (Fyn),phosphorylation enrichment (Hck),phosphorylation enrichment (Jak2),phosphorylation enrichment (MERTK),phosphorylation enrichment (c-Abl (mouse)),phosphorylation enrichment (c-Src),SH2 binding enrichment (Grb2 SH2),SH2 binding enrichment (SHP2-C SH2),SH2 binding enrichment (c-Src SH2)
MGSYNYLGFAR [SPTLC2_Y178],0.831,2.42,0.949,1.3,1.04,0.707,1.05,0.758,2.99,2.89,6.56,0.956,1.1,0.804,3.37,2.54
MHRRQYELLGG [GNAS_Y391_L388R],0.577,0.28,0.426,0.5,0.425,0.307,0.715,0.371,0.409,0.48,0.391,0.416,0.336,0.601,0.349,2.1
MKKKTYAMGGG [GAN_Y424_I423T],0.705,0.857,1.09,0.653,0.531,0.567,0.862,0.428,0.908,0.865,0.578,0.761,1,0.728,0.233,0.438
MKKMHYVDPDH [ST3GAL5_Y99],0.512,0.32,0.311,0.338,0.357,0.32,0.513,0.364,0.367,0.392,0.332,0.41,0.402,0.9,0.672,0.548
MNLLGYRQVRS [CHST4_Y359_H361Q],0.693,0.439,0.448,0.399,0.614,0.359,0.72,0.468,0.45,0.566,0.438,0.679,0.411,0.686,0.481,0.515
MSLRSYGSREG [APC_Y96],0.723,0.416,0.42,0.373,0.414,0.413,0.586,0.398,0.387,0.451,0.418,0.491,0.458,0.763,0.409,0.453
MSNFAYVKREV [SCN1A_Y1694],0.729,0.457,0.437,0.447,0.61,0.419,0.986,0.418,0.552,0.651,0.471,0.516,0.388,0.797,0.7,0.466
MTFVFYRENLR [NLRP14_Y443_YF],1.42,0.585,0.719,0.562,0.927,0.576,1.34,0.48,0.525,1.13,0.369,0.668,0.288,1.34,1.14,0.716
MTKEQYIKMNQ [ARFGEF2_Y797_R802Q],0.662,0.38,0.575,0.687,0.637,0.399,0.805,0.347,0.443,0.706,0.381,0.665,0.341,0.968,0.487,0.517
MVTSGYKAKTI [EFR3A_Y447],0.413,0.337,0.312,0.299,0.375,0.314,0.458,0.361,0.322,0.364,0.377,0.42,0.292,0.748,0.744,0.44
NFADPYRQLPF [CTNND2_Y503_Q507P_YF],0.732,0.432,0.58,0.661,0.652,0.46,0.728,0.587,0.659,0.62,0.417,0.638,0.642,0.728,0.817,0.612
NFAKMYCNPDA [KNL1_Y489_YF],0.942,0.502,0.706,0.569,0.636,0.517,1.02,0.569,0.572,0.766,0.536,0.836,0.538,0.789,0.633,2.03
NFDRIYIYHLR [MYOF_Y1137_V1136I],1.17,0.701,0.648,0.548,0.787,0.611,1.2,0.732,0.742,1.1,0.63,0.734,0.923,1.39,6.21,1.03
NFFDTYIKTCL [IQGAP2_Y1445_YF],1.3,0.736,0.731,0.508,0.815,0.555,1.34,0.456,0.587,1.34,0.496,0.843,0.54,0.85,0.752,0.528
NHFKIYNPCAE [PTEN_Y68_L70P_YF],0.816,0.494,0.518,0.458,0.676,0.442,0.996,0.564,0.56,0.807,0.452,0.809,0.474,0.901,0.798,0.752
NIEPIYLNMLL [ATR_Y317_V316I],1.85,13.8,14.5,10.7,7.79,13.3,3.2,8.37,6.92,1.42,6.85,15.1,6.6,0.705,0.63,0.424
